Measured values from paper PMC12311110.

Experiments:
endogenous VPS26, O75436 = experiment: GFP-based co-IP, western blot band quantification; conditions: chain shown with the change; HEK293T cells, transient transfection; normalised to GFP band intensity; n = 3; parent: est. 100; read off a plot
VPS35, Q96QK1 = experiment: GFP-based co-IP, western blot band quantification; conditions: chain shown with the change; HEK293T cells, transient transfection; normalised to GFP band intensity; n = 3; parent: est. 100; read off a plot

B1: GFP-DENND4C fragment 1087-1271, WT, Q5VZ89 Y1239D (protein)
chain: PKTSLLHIARTHSFENVSCHLPDSRTCMSESTWNPEHRSSPVPEMLEESQELLEPVVDDVPKTTATVDTYESLLSDSNSNQSRDLKTVSKDLRNKRSSLYGIAKVVQREDVETGLDPLSLLATECTGGKTPDSEDKLFSPVIARNLADEIESDMNLKSPLGSKSSSMELHREENRESGMTTAFIH
percent of parent (relative intensity (WT = 100)) (endogenous VPS26, O75436): 18 | percent of parent (relative intensity (WT = 100)) (VPS35, Q96QK1): 22
